Measured values: a protein production outcome set (Wang et al. 2014)

Assay: label from the status in PepcDB records

MTARNILSYSYEEYVEKITAFHGYPAPGVLIGGFMVDLAVKNLPEGILYDAICETRTCLPDAVQLLTPCTFGNGWLTVLPMGLFAVSLYDKFTGEGVRVFLDVEKMGPWQEIRNWFLKLKTKKEQDSERLFKEIREAGPDILELRNVKLKPGFLEKKHKGKIVLCPQCREAYPAQDGELCLSCQGGSPYL
protein production: not failed

MLRQSMNDYFEQPWYLTYADAERLSDLRDETLTLRDEEVTGHVPTEVEYEELQQVNDELAQRIGDMLKVHKEQGAAIDLALVLRDYLASHPRTHHFDLARMVVDQAVRLGYSESDYRAIQPDWTAINDFGAKVQANVIDRYLEHHHHHH
protein production: not failed

VKSKAKKTVDAHSDEYKIRRERNNIAVRKSRDKAKMRNLETQHKVLELTAENERLQKKVEQLSRELSTLRNLFKQLPE
protein production: not failed

MAKFNQDLNEVLNQALNLALDLNHALCTTEHVLLVILEHESGEKIIGTLERDDYDKLKQILKDYLLQYVPLKSDPAKMPARSFVLLRMLKRMYASCFESVGVEELLILMLDHPDCYASKLMDSFGIARLYSNPALLDLDNHGIPNDINDNEEAPKNTPLKKYAKNLSALAQDNALDPVIGREEEILRVIEILGRRKKNNPLLIGEAGVGKTSIAEALALKIAQKEVPEFLQEYEVYSLDLALMVAGAKYRGDFEKRLKKTLKEIQQNGRIILFIDEIHTLLGTGSSNAGSLDAANILKPVLTDGSLKCLGATTFEEYRSVFEKDKAFNRRFSVIKVEEPSKEACYLILKKIAPLYEEHHQVRYDESVFKACVDLTSDYMHDKFLPDKAIELLDEVGSRKKISPKKGKKIGVDDVKETLALKLKIPKMRLSSDKKALLRNLEKSLKNKIFAQAEAISLVSNAIKIQHCGLSAKNKPVGSFLFVGPSGVGKTELAKELALNLNLHFERFDMSEYKEAHSVAKLIGSPSGYVGFEQGGLLVNAIKKHPHCLLLLDEIEKAHSNVYDLLLQVMDNATLSDNLGNQASFKHVILIMTSNVGSKDKDTLGFFSAKNTKYDKAVKELLTPELRSRIDAIVPFNALSLEDFERIVSVELDKLKALALEQDITLKFHKEVVKFIAQKSYQTTLGAREIKKIIHNEIKTKLSDILLLQSFKKPCKIACLLEKNQLVLKEIKRAQKVKENDF
protein production: failed

MNKKKKKRTPKPINLNELEEKINILNFMKNDFEIVLQKENEKHSEVSIQYTNKEESSTLERERINIILKELIISCNEKKEHLNNYIKVAKDIIQKNNETIEKEKNDIDKLILQKDEQIKDVEKKIVIVQNFYKDINKGIIQLINNLEVYLRNKMNINIDIKKMNDKTIELTNVQKLNKQQECKENEFKNILYMSIDKYNEQISIIRTFIKKIKLKQEIDVIKEDNIINTNDDILREPSNNTNEQKEQSHKYDYSHDENENNNFRKYEMINIEEENDKENNVKGDNKLIINKNNVDSFDEDDSYDEDDSCDEDNSCDEDNSCGEVNSCGEDDSYDEDDSYDEDDSYDEDNSYDEDNSYDEDNRCGEKLEKEQLHNLQDDKKNYTLKKNINETLLSSLDDDESKFSSSNSDTTKSFEVYKNKEKDKDKEIYNYLYSEEETYEQKKNNESSNSDDDDNKKEHFIKKFTTLKTNKNILNEDVQFLMDKIKKIDYDYISYFEKKLKYK
protein production: failed
